Residue numbers refer to the chain shown, from its start. Values belong to the molecule of their own block, whether it stands above or below them.
Key:
[1] = target: Hsp90 of the yeast-purified Hsp90:Cdc37:CRaf^KD complex (human) (UniProt P08238); test: cryo-EM structure; same sample as a1; pairs inside the natively isolated Hsp90^closed:Cdc37:CRaf^KD complex, which was assembled in yeast and co-purified
[2] = target: Hsp90 (E. coli purified; used as Hsp90^open without nucleotide or Hsp90^closed) (human) (UniProt P08238); test: fluorescence correlation spectroscopy (FCS); ~20 nM Alexa488-labelled PP5 with varying concentrations of Hsp90^closed dimer; room temperature; hydrodynamic radius against Hsp90 concentration, one-site total binding fit; apparent KD
[3] = target: Hsp90 (E. coli purified; used as Hsp90^open without nucleotide or Hsp90^closed) (human) (UniProt P08238); test: as above; remark: listed apart in the source
[4] = target: Hsp90 of the mammalian-purified Hsp90:Cdc37:CRaf complexes (human) (UniProt P08238)
[5] = target: Hsp90 (E. coli purified; used as Hsp90^open without nucleotide or Hsp90^closed) (human) (UniProt P08238)
[6] = target: Hsp90 (E. coli purified; used as Hsp90^open without nucleotide or Hsp90^closed) (human) (UniProt P08238); test: fluorescence correlation spectroscopy (FCS); ~20 nM Alexa488-labelled PP5 with varying concentrations of Hsp90^open; room temperature; hydrodynamic radius against Hsp90 concentration, one-site total binding fit; apparent KD
[7] = target: Hsp90 of the mammalian-purified Hsp90:Cdc37:CRaf complexes (human) (UniProt P08238); remark: listed apart in the source
[8] = target: Hsp90 (E. coli purified; used as Hsp90^open without nucleotide or Hsp90^closed) (human) (UniProt P08238); remark: listed apart in the source

UniProt P08238, sequence (P08238 2-724 limits assumed): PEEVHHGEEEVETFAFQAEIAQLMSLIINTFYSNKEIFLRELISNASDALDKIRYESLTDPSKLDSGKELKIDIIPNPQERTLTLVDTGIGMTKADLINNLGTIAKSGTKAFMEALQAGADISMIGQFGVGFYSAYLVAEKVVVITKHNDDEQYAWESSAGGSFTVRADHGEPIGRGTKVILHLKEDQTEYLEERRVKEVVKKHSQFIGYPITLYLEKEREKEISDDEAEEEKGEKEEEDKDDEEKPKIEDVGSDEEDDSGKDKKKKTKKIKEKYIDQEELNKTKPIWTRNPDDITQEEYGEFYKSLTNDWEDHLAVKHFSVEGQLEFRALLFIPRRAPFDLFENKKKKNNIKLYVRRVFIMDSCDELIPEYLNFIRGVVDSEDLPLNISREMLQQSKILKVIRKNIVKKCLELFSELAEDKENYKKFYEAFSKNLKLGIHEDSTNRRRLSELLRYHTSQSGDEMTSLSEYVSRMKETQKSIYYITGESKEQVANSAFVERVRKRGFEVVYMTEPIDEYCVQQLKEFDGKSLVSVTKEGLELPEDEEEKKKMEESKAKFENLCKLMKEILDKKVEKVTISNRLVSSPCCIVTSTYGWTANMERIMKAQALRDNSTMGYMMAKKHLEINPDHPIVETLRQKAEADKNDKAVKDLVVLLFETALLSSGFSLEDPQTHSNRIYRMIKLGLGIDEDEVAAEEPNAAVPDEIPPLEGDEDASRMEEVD

Molecule: Hsp90 of the yeast-purified Hsp90:Cdc37:CRaf^KD complex (from UniProt P08238 1-724) (natural protein)
stoichiometry N [1]: 2

B1: Serine/threonine-protein phosphatase 5 (PP5), wild type (enzyme)
chain: MAMAEGERTECAEPPRDEPPADGALKRAEELKTQANDYFKAKDYENAIKFYSQAIELNPSNAIYYGNRSLAYLRTECYGYALGDATRAIELDKKYIKGYYRRAASNMALGKFRAALRDYETVVKVKPHDKDAKMKYQECNKIVKQKAFERAIAGDEHKRSVVDSLDIESMTIEDEYSGPKLEDGKVTISFMKELMQWYKDQKKLHRKCAYQILVQVKEVLSKLSTLVETTLKETEKITVCGDTHGQFYDLLNIFELNGLPSETNPYIFNGDFVDRGSFSVEVILTLFGFKLLYPDHFHLLRGNHETDNMNQIYGFEGEVKAKYTAQMYELFSEVFEWLPLAQCINGKVLIMHGGLFSEDGVTLDDIRKIERNRQPPDSGPMCDLLWSDPQPQNGRSISKRGVSCQFGPDVTKAFLEENNLDYIIRSHEVKAEGYEVAHGGRCVTVFSAPNYCDQMGNKASYIHLQGSDLRPQFHQFTAVPHPNVKPMAYANTLLQLGMM
modifications: Alexa488 (maleimide dye) in the FCS assays
Kd [2]: 230 µM
Kd [3]: 0.43 µM
rate of CRaf^pS338 dephosphorylation by PP5 in the Hsp90:Cdc37:CRaf complex (3 μM complex, 150 nM PP5, 25 °C) [4]: 0.19 min^−1
rate of Cdc37^pS13 dephosphorylation by PP5 in Hsp90^open:Cdc37^pS13 (3 μM Cdc37^pS13 and equimolar Hsp90, 750 nM PP5, 25 °C) [5]: 0.043 min^−1
Kd [6]: 0.62 µM

B3: PP5^R113D (enzyme)
chain: B1 chain with R113D
modifications: Alexa488 (maleimide dye) in the FCS assays
Kd [2]: 4300 µM
rate of CRaf^pS338 dephosphorylation by PP5 in the Hsp90:Cdc37:CRaf complex (3 μM complex, 150 nM PP5, 25 °C) [4]: 0.046 min^−1
rate of Cdc37^pS13 dephosphorylation by PP5 in Hsp90^open:Cdc37^pS13 (3 μM Cdc37^pS13 and equimolar Hsp90, 750 nM PP5, 25 °C) [5]: 0.006 min^−1

B4: PP5^F148K (enzyme)
chain: B1 chain with F148K
modifications: Alexa488 (maleimide dye) in the FCS assays
Kd [2]: 2000 µM
rate of CRaf^pS338 dephosphorylation by PP5 in the Hsp90:Cdc37:CRaf complex (3 μM complex, 150 nM PP5, 25 °C) [4]: 0.05 min^−1
rate of Cdc37^pS13 dephosphorylation by PP5 in Hsp90^open:Cdc37^pS13 (3 μM Cdc37^pS13 and equimolar Hsp90, 750 nM PP5, 25 °C) [5]: 0.009 min^−1

Next, values leading:

Kd [2]: 3300 µM
rate of CRaf^pS338 dephosphorylation by PP5 in the Hsp90:Cdc37:CRaf complex (3 μM complex, 150 nM PP5, 25 °C) [4]: 0.04 min^−1
rate of Cdc37^pS13 dephosphorylation by PP5 in Hsp90^open:Cdc37^pS13 (3 μM Cdc37^pS13 and equimolar Hsp90, 750 nM PP5, 25 °C) [5]: 0.012 min^−1
B2: PP5^R150D (enzyme)
chain: B1 chain with R150D
modifications: Alexa488 (maleimide dye) in the FCS assays

rate of CRaf^pS338 dephosphorylation by PP5^(αJ del) in the Hsp90:Cdc37:CRaf complex [7]: 0.28 min^−1
rate of Cdc37 dephosphorylation by PP5^(αJ del) while Cdc37 is bound to Hsp90 [8]: 0.055 min⁻¹
Kd [3]: 0.13 µM
Kd [6]: 0.12 µM
B5: PP5^(αJ del) (PP5 with the last 10 residues truncated) (enzyme)
chain: MAMAEGERTECAEPPRDEPPADGALKRAEELKTQANDYFKAKDYENAIKFYSQAIELNPSNAIYYGNRSLAYLRTECYGYALGDATRAIELDKKYIKGYYRRAASNMALGKFRAALRDYETVVKVKPHDKDAKMKYQECNKIVKQKAFERAIAGDEHKRSVVDSLDIESMTIEDEYSGPKLEDGKVTISFMKELMQWYKDQKKLHRKCAYQILVQVKEVLSKLSTLVETTLKETEKITVCGDTHGQFYDLLNIFELNGLPSETNPYIFNGDFVDRGSFSVEVILTLFGFKLLYPDHFHLLRGNHETDNMNQIYGFEGEVKAKYTAQMYELFSEVFEWLPLAQCINGKVLIMHGGLFSEDGVTLDDIRKIERNRQPPDSGPMCDLLWSDPQPQNGRSISKRGVSCQFGPDVTKAFLEENNLDYIIRSHEVKAEGYEVAHGGRCVTVFSAPNYCDQMGNKASYIHLQGSDLRPQFHQFTAVPHPNVKPMAY
modifications: Alexa488 (maleimide dye) in the FCS assays
